B1: Vivid (VVD) truncated at the N-terminus by 36 residues, with an N-terminal 6xHis tag (domain or fragment, Neurospora crassa, UniProt Q9C3Y6 37-186, looked up)
chain: HTLYAPGGYDIMGYLIQIMNRPNPQVELGPVDTSCALILCDLKQKDTPIVYASEAFLYMTGYSNAEVLGRNCRFLQSPDGMVKPKSTRKYVDSNTINTMRKAIDRNAEVQVEVVNFKKNGQRFVNFLTMIPVRDETGEYRYSMGFQCETE
notes: Vivid (VVD), LOV photoreceptor of Neurospora crassa, wild type, first 36 amino acids deleted (VVD36); The plasmid came from B. R. Crane; The sample carries some self-oxidative damage (oxidised D82, Y87, F92, F159, N161 found in the aggregated pellet); also called VVD36; dark-VVD; not shown: His6, N-terminal, kept

Experiments:
[1] = target: Vivid (VVD) truncated at the N-terminus by 36 residues, with an N-terminal 6xHis tag (Neurospora crassa) (UniProt Q9C3Y6)
[2] = target: the molecule itself; test: SDS-PAGE and Western blot of the aggregated pellet; purified VVD36 given a 5-min blue-light pulse, kept 24 h at 25°C in standard buffer (10% glycerol, 50 mM HEPES, 150 mM NaCl, 20 mM imidazole, pH 8), centrifuged; pellet run on SDS-PAGE and blotted against the 6xHis tag; with DTT present oligomer formation was limited

Molecule	photoadduct mean lifetime of VVD with A. niger catalase at 2.34 uM (optical absorbance) [1]	binding result [2]
catalase from Aspergillus niger (from UniProt P55303 1-730) (enzyme)	1100 s	–
B1	–	binds

Reference: publication PMC6054393, “Light induces oxidative damage and protein stability in the fungal photoreceptor Vivid” (PLoS ONE, 2018)
